B1: recombinant human Flag-tagged fortilin (natural protein)
chain: MIIYRDLISHDEMFSDIYKIREIADGLCLEVEGKMVSRTEGNIDDSLIGGNASAEGPEGEGTESTVITGVDIVMNHHLQETSFTKEAYKKYIKDYMKSIKGKLEEQRPERVKPFMTGAAEQIKHILANFKNYQFFIGENMNPDGMVALLDYREDGVTPYMIFFKDGLEMEKC
notes: fortilin, human; the abstract calls fortilin a 172-amino acid protein; also called rh-fortilin; source: bought: OriGene (Catalog #: TP301664)
B2: biotinylated rh-fortilin (natural protein, human)
chain: B1 chain
modifications: biotin (NHS-PEG4-biotin)
notes: fortilin, human; The BLI methods say only 'rh-fortilin'; also called biotinylated fortilin; source: rh-fortilin biotinylated with NHS-PEG4-biotin and desalted

Assays:
[1] = biological target: T1, recombinant human Flag-tagged p53 (human, UniProt P04637 1-393); test: co-IP; in vitro mixture of recombinant Flag-fortilin, TGF-β1, Flag-p53 and His6-NQO2 in Buffer A (10 mM Tris pH 7.4, 100 mM NaCl, 0.01% NP-40); rabbit anti-fortilin mAb or rabbit IgG, 2 h room temperature; anti-rabbit IgG Dynabeads; four washes in Buffer B (0.3% NP-40); western blot; details: both partners purified
T1 construct: p53, human; Positive control of the co-IP; also called rh-p53; source: bought: OriGene (Catalog #: TP300003)

[2] = biological target: T2, recombinant human latency-associated-peptide (LAP)-TGF-β1 protein (human, UniProt P01137 30-278); test: BLI; BLItz; biotinylated rh-fortilin immobilised on streptavidin biosensors (30 μg/mL, PBS); various concentrations of analyte, 180 s association, 180 s dissociation in PBS; details: both partners purified
T2 construct: TGF-β1 precursor, human; 'latency-associated-peptide (LAP)-TGF-β1'; As far as I recall, R&D Systems 246-LP is the LAP of TGF-β1 alone (about Leu30-Arg278 of the precursor), not the latent complex; also called LAP-TGF-β1 molecule; source: bought: R&D Systems (Catalog #: 246-LP-025/CF)
T2 sequence (P01137 30-278): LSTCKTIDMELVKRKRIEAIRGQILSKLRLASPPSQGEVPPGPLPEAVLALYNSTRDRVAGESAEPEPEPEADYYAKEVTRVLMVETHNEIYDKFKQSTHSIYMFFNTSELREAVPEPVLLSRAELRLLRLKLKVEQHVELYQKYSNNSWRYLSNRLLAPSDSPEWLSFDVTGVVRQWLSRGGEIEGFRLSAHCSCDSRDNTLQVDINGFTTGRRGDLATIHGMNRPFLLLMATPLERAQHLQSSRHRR

T1 sequence (P04637 whole entry): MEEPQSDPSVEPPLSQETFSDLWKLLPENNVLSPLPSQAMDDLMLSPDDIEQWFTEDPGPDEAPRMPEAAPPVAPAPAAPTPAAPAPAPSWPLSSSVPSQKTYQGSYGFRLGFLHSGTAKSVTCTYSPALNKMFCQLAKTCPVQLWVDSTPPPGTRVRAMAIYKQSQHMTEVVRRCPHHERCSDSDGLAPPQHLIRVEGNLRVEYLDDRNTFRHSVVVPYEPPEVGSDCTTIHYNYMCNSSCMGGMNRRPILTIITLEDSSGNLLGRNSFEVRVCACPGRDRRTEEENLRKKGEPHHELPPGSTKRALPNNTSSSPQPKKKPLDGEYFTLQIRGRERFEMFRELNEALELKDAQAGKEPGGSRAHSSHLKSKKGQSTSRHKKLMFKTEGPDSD

| Binder | binding result [1] | Kd [2] |
| --- | --- | --- |
| B1 | binds | – |
| B2 | – | 930 nM |

Source: paper PMC8866402, “Fortilin interacts with TGF-β1 and prevents TGF-β receptor activation” (Communications Biology, 2022)
